Results published in the supplement of paper PMC9112550, “Optimization of the antimicrobial peptide Bac7 by deep mutational scanning” (BMC Biology, 2022).
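Also: peptides expressed intracellularly from a pBAD plasmid library in pooled LB shake-flask culture, induced with 0.3% L-arabinose, DNA abundance read by NGS, three biological replicates, DESeq2 with apeglm shrinkage.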

What follows are sequences tested on Escherichia coli TOP10 (assay: shrunken log2 fold change of peptide-encoding DNA abundance (4.5 h post-induction vs induction); higher = less antimicrobial activity (less host growth inhibition)). Details: time post-induction: 4.5 h; library: site-saturation at positions 5, 18, 19, 20.
With RRIRGRPPRLPRPRPRPSWNPRP the “shrunken log2 fold change” value was 0.285.
In the case of RRIRMRPPRLPRPRPRPIFPPRP, the “shrunken log2 fold change” value is reported as 0.229.
RRIRHRPPRLPRPRPRPKMPPRP was tested, and the “shrunken log2 fold change” value was -0.0334.
With RRIRKRPPRLPRPRPRPQTMPRP the “shrunken log2 fold change” value was 0.0588.
With RRIRTRPPRLPRPRPRPTPTPRP the “shrunken log2 fold change” value was 0.289.
With RRIRERPPRLPRPRPRPYDQPRP the “shrunken log2 fold change” value was -0.518.
With RRIRWRPPRLPRPRPRPNQKPRP the “shrunken log2 fold change” value was -0.0347.
For RRIRYRPPRLPRPRPRPFAKPRP, the “shrunken log2 fold change” value was -0.623.
In the case of RRIRRRPPRLPRPRPRPAHQPRP, the “shrunken log2 fold change” value is reported as 0.732.
With RRIRTRPPRLPRPRPRPNISPRP the “shrunken log2 fold change” value was -0.293.
For RRIRMRPPRLPRPRPRPGAHPRP, the “shrunken log2 fold change” value was 0.473.
With RRIRERPPRLPRPRPRPENQPRP the “shrunken log2 fold change” value was -0.174.
With RRIRWRPPRLPRPRPRPAVAPRP the “shrunken log2 fold change” value was 0.544.
RRIRRRPPRLPRPRPRPAHAPRP was tested, and the “shrunken log2 fold change” value was 0.407.
With RRIRDRPPRLPRPRPRPVEIPRP the “shrunken log2 fold change” value was -0.0399.
For RRIRCRPPRLPRPRPRPFSTPRP, the “shrunken log2 fold change” value was -0.472.
With RRIRPRPPRLPRPRPRPDSYPRP the “shrunken log2 fold change” value was -0.422.
With RRIRTRPPRLPRPRPRPSIFPRP the “shrunken log2 fold change” value was -0.122.
For RRIRDRPPRLPRPRPRPKPSPRP, the “shrunken log2 fold change” value was 0.503.
With RRIRVRPPRLPRPRPRPEMRPRP the “shrunken log2 fold change” value was 0.562.
With RRIRYRPPRLPRPRPRPSVDPRP the “shrunken log2 fold change” value was -0.61.
For RRIRPRPPRLPRPRPRPDAGPRP, the “shrunken log2 fold change” value was 0.442.
With RRIRWRPPRLPRPRPRPNFNPRP the “shrunken log2 fold change” value was -0.198.
For RRIRRRPPRLPRPRPRPHWWPRP, the “shrunken log2 fold change” value was 0.325.
For RRIRWRPPRLPRPRPRPEQPPRP, the “shrunken log2 fold change” value was 0.157.
In the case of RRIRMRPPRLPRPRPRPLLCPRP, the “shrunken log2 fold change” value is reported as 0.473.
In the case of RRIRPRPPRLPRPRPRPCCKPRP, the “shrunken log2 fold change” value is reported as -0.247.
RRIRARPPRLPRPRPRPYHNPRP was tested, and the “shrunken log2 fold change” value was -1.16.
With RRIRIRPPRLPRPRPRPVSLPRP the “shrunken log2 fold change” value was -0.147.
With RRIRCRPPRLPRPRPRPGYVPRP the “shrunken log2 fold change” value was -0.0932.
RRIRPRPPRLPRPRPRPSGYPRP was tested, and the “shrunken log2 fold change” value was -0.204.
With RRIRLRPPRLPRPRPRPPESPRP the “shrunken log2 fold change” value was 0.367.
RRIRKRPPRLPRPRPRPETKPRP was tested, and the “shrunken log2 fold change” value was 0.106.
With RRIRSRPPRLPRPRPRPPNEPRP the “shrunken log2 fold change” value was 0.0505.
With RRIRKRPPRLPRPRPRPKLVPRP the “shrunken log2 fold change” value was 0.0448.
RRIRKRPPRLPRPRPRPHSLPRP was tested, and the “shrunken log2 fold change” value was 0.0727.
For RRIRLRPPRLPRPRPRPYKQPRP, the “shrunken log2 fold change” value was -0.0145.
RRIRERPPRLPRPRPRPMKMPRP was tested, and the “shrunken log2 fold change” value was 0.0259.
RRIRFRPPRLPRPRPRPQFFPRP was tested, and the “shrunken log2 fold change” value was -0.193.
In the case of RRIRRRPPRLPRPRPRPDCIPRP, the “shrunken log2 fold change” value is reported as 0.0761.
In the case of RRIRDRPPRLPRPRPRPKNKPRP, the “shrunken log2 fold change” value is reported as -0.314.
RRIRCRPPRLPRPRPRPAWPPRP was tested, and the “shrunken log2 fold change” value was 0.895.
For RRIRVRPPRLPRPRPRPISQPRP, the “shrunken log2 fold change” value was -0.261.
RRIRSRPPRLPRPRPRPFCFPRP was tested, and the “shrunken log2 fold change” value was -0.069.
RRIRRRPPRLPRPRPRPRVFPRP was tested, and the “shrunken log2 fold change” value was 0.849.
For RRIRFRPPRLPRPRPRPWCNPRP, the “shrunken log2 fold change” value was -0.267.
For RRIRTRPPRLPRPRPRPWMWPRP, the “shrunken log2 fold change” value was 0.101.
For RRIRERPPRLPRPRPRPDEVPRP, the “shrunken log2 fold change” value was 0.0489.
With RRIRLRPPRLPRPRPRPFKLPRP the “shrunken log2 fold change” value was -0.294.
RRIRVRPPRLPRPRPRPQWMPRP was tested, and the “shrunken log2 fold change” value was -0.105.
For RRIRTRPPRLPRPRPRPQMDPRP, the “shrunken log2 fold change” value was -0.195.
With RRIRFRPPRLPRPRPRPYQAPRP the “shrunken log2 fold change” value was -0.303.
In the case of RRIRKRPPRLPRPRPRPMHWPRP, the “shrunken log2 fold change” value is reported as 0.136.
RRIRLRPPRLPRPRPRPPHDPRP was tested, and the “shrunken log2 fold change” value was 0.397.
For RRIRVRPPRLPRPRPRPPARPRP, the “shrunken log2 fold change” value was 0.76.
In the case of RRIRVRPPRLPRPRPRPRPPPRP, the “shrunken log2 fold change” value is reported as 0.843.
RRIRIRPPRLPRPRPRPMQRPRP was tested, and the “shrunken log2 fold change” value was -0.129.
In the case of RRIRFRPPRLPRPRPRPNGKPRP, the “shrunken log2 fold change” value is reported as 0.0809.
In the case of RRIRPRPPRLPRPRPRPQGWPRP, the “shrunken log2 fold change” value is reported as 0.542.
For RRIRARPPRLPRPRPRPYECPRP, the “shrunken log2 fold change” value was -0.327.
For RRIRHRPPRLPRPRPRPNFCPRP, the “shrunken log2 fold change” value was -0.0463.
For RRIRTRPPRLPRPRPRPVHVPRP, the “shrunken log2 fold change” value was 0.039.
With RRIRARPPRLPRPRPRPRFRPRP the “shrunken log2 fold change” value was 0.459.
RRIRSRPPRLPRPRPRPHAYPRP was tested, and the “shrunken log2 fold change” value was 0.0215.
RRIRYRPPRLPRPRPRPKQHPRP was tested, and the “shrunken log2 fold change” value was -0.304.
With RRIRCRPPRLPRPRPRPECIPRP the “shrunken log2 fold change” value was 0.0623.
In the case of RRIRGRPPRLPRPRPRPICKPRP, the “shrunken log2 fold change” value is reported as 0.616.
For RRIRCRPPRLPRPRPRPPERPRP, the “shrunken log2 fold change” value was 0.576.
With RRIRKRPPRLPRPRPRPIDDPRP the “shrunken log2 fold change” value was 0.0889.
With RRIRGRPPRLPRPRPRPNADPRP the “shrunken log2 fold change” value was 2.38.
With RRIRMRPPRLPRPRPRPCHWPRP the “shrunken log2 fold change” value was -0.022.
For RRIRWRPPRLPRPRPRPRMYPRP, the “shrunken log2 fold change” value was -0.196.
In the case of RRIRRRPPRLPRPRPRPKSTPRP, the “shrunken log2 fold change” value is reported as 0.18.
RRIRIRPPRLPRPRPRPQTVPRP was tested, and the “shrunken log2 fold change” value was -0.271.
For RRIRWRPPRLPRPRPRPLLNPRP, the “shrunken log2 fold change” value was 0.00531.
